Reference: paper PMC3182943, “Monalysin, a Novel ß-Pore-Forming Toxin from the Drosophila Pathogen Pseudomonas entomophila, Contributes to Host Intestinal Damage and Lethality” (PLoS Pathogens, 2011)

Molecular target: the molecule itself
Assay: SEC-MALS; Silica Gel KW804 column (Shodex), 10 mM Tris, 150 mM NaCl, pH 7.5, 0.5 ml/min; MALS/UV/RI with quasi-elastic light scattering; protein loaded at 0.02 mM

B1: recombinant pro-Monalysin (natural protein)
chain: MTIKEELGQPQSHSIELDEVSKEAASTRAALTSNLSGRFDQYPTKKGDFAIDGYLLDYSSPKQGCWVDGITVYGDIYIGKQNWGTYTRPVFAYLQYVETISIPQNVTTTLSYQLTKGHTRSFETSVNAKYSVGANIDIVNVGSEISTGFTRSESWSTTQSFTDTTEMKGPGTFVIYQVVLVYAHNATSAGRQNANAFAYSKTQAVGSRVDLYYLSAITQRKRVIVPSSNAVTPLDWDTVQRNVLMENYNPGSNSGHFSFDWSAYNDPHRRY
notes: Monalysin (pro-form, pore-forming toxin) of Pseudomonas entomophila L48, ORF PSEEN3174, residues 1 to 271; 30.2 kDa by MALDI-TOF, called the full-length pro-toxin; TRX-His6-TEV fusion from the vector pETG-20A, removed by His-TEV protease; The text mostly calls this protein 'Monalysin' or 'recombinant Monalysin'; upon storage at 4°C it turns partly into the shorter form; Oligomer of about 18 …
  stoichiometry N: ~18 monomers
